Test results from PMC7367873, “Dissecting the sequence determinants for dephosphorylation by the catalytic subunits of phosphatases PP1 and PP2A” (Nature Communications, 2020).

How the values were obtained:
GFP-14-3-3β = GFP-14-3-3β co-IP with LC-MS/MS, untreated GFP-14-3-3β versus GFP control (14-3-3 interactome); assay type: binding, human
[1] = test system: GFP-14-3-3β and its binding proteins; assay: GFP-14-3-3β co-IP with LC-MS/MS label-free quantification, untreated versus PP1c-treated; parameters: species or system human
[2] = untreated vs GFP, LFQ intensities, replicates 1-3
[3] = PP1 vs untreated, LFQ intensities, replicates 1-3
[4] = log2 difference, pairwise comparison untreated vs GFP, label-free quantification, 3 replicates each
[5] = log2 difference, pairwise comparison PP1 vs untreated, label-free quantification, 3 replicates each

Molecule | Difference (log2), untreated vs GFP (GFP-14-3-3β; [2]) | Difference (log2), PP1 vs untreated [1, 3] | Difference (log2), untreated vs GFP (GFP-14-3-3β; [4]) | Difference (log2), PP1 vs untreated [1, 5]
ZC3H18 (protein, UniProt Q86VM9 1-953, looked up) Zinc finger CCCH …: MDVAESPERDPHSPEDEEQPQGLSDDDILRDSGSDQDLDGAGVRASDLEDEESAARGPSQEEEDNHSDEEDRASEPKSQDQDSEVNELSRGPTSSPCEEEGDEGEEDRTSDLRDEASSVTRELDEHELDYDEEVPEEPAPAVQEDEAEKAGAEDDEEKGEGTPREEGKAGVQSVGEKESLEAAKEKKKEDDDGEIDDGEIDDDDLEEGEVKDPSDRKVRPRPTCRFFMKGNCTWGMNCRFIHPGVNDKGNYSLITKADPFPPNGAPPLGPHPLMPANPWGGPVVDEILPPPPPEPPTESAWERGLRHAKEVLKKATIRKEQEPDFEEKRFTVTIGEDEREFDKENEVFRDWNSRIPRDVRDTVLEPYADPYYDYEIERFWRGGQYENFRVQYTETEPYHNYRERERERERENRQRERERERERDRERERRQRERERERERERDKERQRRKEEWERERAKRDEKDRQHRDRDREKEREKEKGKPKPRSPQPPSRQAEPPKKEAATTGPQVKRADEWKDPWRRSKSPKKKLGVSVSPSRARRRRKTSASSASASNSSRSSSRSSSYSGSGSSRSRSRSSSYSSYSSRSSRHSSFSGSRSRSRSFSSSPSPSPTPSPHRPSIRTKGEPAPPPGKAGEKSVKKPAPPPAPPQATKTTAPVPEPTKPGDPREARRKERPARTPPRRRTLSGSGSGSGSSYSGSSSRSRSLSVSSVSSVSSATSSSSSAHSVDSEDMYADLASPVSSASSRSPAPAQTRKEKGKSKKEDGVKEEKRKRDSSTQPPKSAKPPAGGKSSQQPSTPQQAPPGQPQQGTFVAHKEIKLTLLNKAADKGSRKRYEPSDKDRQSPPPAKRPNTSPDRGSRDRKSGGRLGSPKPERQRGQNSKAPAAPADRKRQLSPQSKSSSKVTSVPGKASDPGAASTKSGKASTLSRREELLKQLKAVEDAIARKRAKIPGKA | 1.571 log2 | -1.028 log2 | – | –
EIF2A (protein, UniProt Q9BY44 1-585, looked up) Eukaryotic translation …: MAPSTPLLTVRGSEGLYMVNGPPHFTESTVFPRESGKNCKVCIFSKDGTLFAWGNGEKVNIISVTNKGLLHSFDLLKAVCLEFSPKNTVLATWQPYTTSKDGTAGIPNLQLYDVKTGTCLKSFIQKKMQNWCPSWSEDETLCARNVNNEVHFFENNNFNTIANKLHLQKINDFVLSPGPQPYKVAVYVPGSKGAPSFVRLYQYPNFAGPHAALANKSFFKADKVTMLWNKKATAVLVIASTDVDKTGASYYGEQTLHYIATNGESAVVQLPKNGPIYDVVWNSSSTEFCAVYGFMPAKATIFNLKCDPVFDFGTGPRNAAYYSPHGHILVLAGFGNLRGQMEVWDVKNYKLISKPVASDSTYFAWCPDGEHILTATCAPRLRVNNGYKIWHYTGSILHKYDVPSNAELWQVSWQPFLDGIFPAKTITYQAVPSEVPNEEPKVATAYRPPALRNKPITNSKLHEEEPPQNMKPQSGNDKPLSKTALKNQRKHEAKKAAKQEARSDKSPDLAPTPAPQSTPRNTVSQSISGDPEIDKKIKNLKKKLKAIEQLKEQAATGKQLEKNQLEKIQKETALLQELEDLELGI | – | – | -1.244 | 1.627
CORO1B (protein, UniProt Q9BR76 1-489, looked up) Coronin-1B: MSFRKVVRQSKFRHVFGQPVKNDQCYEDIRVSRVTWDSTFCAVNPKFLAVIVEASGGGAFLVLPLSKTGRIDKAYPTVCGHTGPVLDIDWCPHNDEVIASGSEDCTVMVWQIPENGLTSPLTEPVVVLEGHTKRVGIIAWHPTARNVLLSAGCDNVVLIWNVGTAEELYRLDSLHPDLIYNVSWNHNGSLFCSACKDKSVRIIDPRRGTLVAEREKAHEGARPMRAIFLADGKVFTTGFSRMSERQLALWDPENLEEPMALQELDSSNGALLPFYDPDTSVVYVCGKGDSSIRYFEITEEPPYIHFLNTFTSKEPQRGMGSMPKRGLEVSKCEIARFYKLHERKCEPIVMTVPRKSDLFQDDLYPDTAGPEAALEAEEWVSGRDADPILISLREAYVPSKQRDLKISRRNVLSDSRPAMAPGSSHLGAPASTTTAADATPSGSLARAGEAGKLEEVMQELRALRALVKEQGDRICRLEEQLGRMENGDA | 0.1576 log2 | -1.031 log2 | – | –
SAMD4B (protein, UniProt Q5PRF9 1-694, looked up) Protein Smaug homolog 2: MMFRDQVGILAGWFKGWNECEQTVALLSLLKRVTRTQARFLQLCLEHSLADCNDIHLLESEANSAAIVSQWQQESKEKVVSLLLSHLPLLQPGNTEAKSEYMRLLQKVLAYSIESNAFIEESRQLLSYALIHPATTLEDRNALALWLSHLEERLASGFRSRPEPSYHSRQGSDEWGGPAELGPGEAGPGWQDKPPRENGHVPFHPSSSVPPAINSIGSNANTGLPCQIHPSPLKRSMSLIPTSPQVPGEWPSPEELGARAAFTTPDHAPLSPQSSVASSGSEQTEEQGSSRNTFQEDGSGMKDVPSWLKSLRLHKYAALFSQMSYEEMMTLTEQHLESQNVTKGARHKIALSIQKLRERQSVLKSLEKDVLEGGNLRNALQELQQIIITPIKAYSVLQATVAAATTTPTAKDGAPGEPPLPGAEPPLAHPGTDKGTEAKDPPAVENYPPPPAPAPTDGSEPAPAPVADGDIPSQFTRVMGKVCTQLLVSRPDEENITSYLQLIEKCLTHEAFTETQKKRLLSWKQQVLKLLRTFPRKAALEMQNYRQQKGWAFGSNSLPIAGSVGMGVARRTQRQFPMPPRALPPGRMGLLSPSGIGGVSPRHALTSPSLGGQGRQNLWFANPGGSNSMPSQSRSSVQRTHSLPVHSSPQAILMFPPDCPVPGPDLEINPTLESLCLSMTEHALGDGTDKTSTI | 4.238 log2 | -1.071 log2 | – | –
ATP5A1 (protein, UniProt P25705 44-553, looked up) ATP synthase F(1) complex …: QKTGTAEMSSILEERILGADTSVDLEETGRVLSIGDGIARVHGLRNVQAEEMVEFSSGLKGMSLNLEPDNVGVVVFGNDKLIKEGDIVKRTGAIVDVPVGEELLGRVVDALGNAIDGKGPIGSKTRRRVGLKAPGIIPRISVREPMQTGIKAVDSLVPIGRGQRELIIGDRQTGKTSIAIDTIINQKRFNDGSDEKKKLYCIYVAIGQKRSTVAQLVKRLTDADAMKYTIVVSATASDAAPLQYLAPYSGCSMGEYFRDNGKHALIIYDDLSKQAVAYRQMSLLLRRPPGREAYPGDVFYLHSRLLERAAKMNDAFGGGSLTALPVIETQAGDVSAYIPTNVISITDGQIFLETELFYKGIRPAINVGLSVSRVGSAAQTRAMKQVAGTMKLELAQYREVAAFAQFGSDLDAATQQLLSRGVRLTELLKQGQYSPMAIEEQVAVIYAGVRGYLDKLEPSKITKFENAFLSHVVSQHQALLGTIRADGKISEQSDAKLKEIVTNFLAGFEA | – | – | -0.3409 | 1.626
SF3B1 (protein, UniProt O75533 1-1304, looked up) Splicing factor 3B subunit 1: MAKIAKTHEDIEAQIREIQGKKAALDEAQGVGLDSTGYYDQEIYGGSDSRFAGYVTSIAATELEDDDDDYSSSTSLLGQKKPGYHAPVALLNDIPQSTEQYDPFAEHRPPKIADREDEYKKHRRTMIISPERLDPFADGGKTPDPKMNARTYMDVMREQHLTKEEREIRQQLAEKAKAGELKVVNGAAASQPPSKRKRRWDQTADQTPGATPKKLSSWDQAETPGHTPSLRWDETPGRAKGSETPGATPGSKIWDPTPSHTPAGAATPGRGDTPGHATPGHGGATSSARKNRWDETPKTERDTPGHGSGWAETPRTDRGGDSIGETPTPGASKRKSRWDETPASQMGGSTPVLTPGKTPIGTPAMNMATPTPGHIMSMTPEQLQAWRWEREIDERNRPLSDEELDAMFPEGYKVLPPPAGYVPIRTPARKLTATPTPLGGMTGFHMQTEDRTMKSVNDQPSGNLPFLKPDDIQYFDKLLVDVDESTLSPEEQKERKIMKLLLKIKNGTPPMRKAALRQITDKAREFGAGPLFNQILPLLMSPTLEDQERHLLVKVIDRILYKLDDLVRPYVHKILVVIEPLLIDEDYYARVEGREIISNLAKAAGLATMISTMRPDIDNMDEYVRNTTARAFAVVASALGIPSLLPFLKAVCKSKKSWQARHTGIKIVQQIAILMGCAILPHLRSLVEIIEHGLVDEQQKVRTISALAIAALAEAATPYGIESFDSVLKPLWKGIRQHRGKGLAAFLKAIGYLIPLMDAEYANYYTREVMLILIREFQSPDEEMKKIVLKVVKQCCGTDGVEANYIKTEILPPFFKHFWQHRMALDRRNYRQLVDTTVELANKVGAAEIISRIVDDLKDEAEQYRKMVMETIEKIMGNLGAADIDHKLEEQLIDGILYAFQEQTTEDSVMLNGFGTVVNALGKRVKPYLPQICGTVLWRLNNKSAKVRQQAADLISRTAVVMKTCQEEKLMGHLGVVLYEYLGEEYPEVLGSILGALKAIVNVIGMHKMTPPIKDLLPRLTPILKNRHEKVQENCIDLVGRIADRGAEYVSAREWMRICFELLELLKAHKKAIRRATVNTFGYIAKAIGPHDVLATLLNNLKVQERQNRVCTTVAIAIVAETCSPFTVLPALMNEYRVPELNVQNGVLKSLSFLFEYIGEMGKDYIYAVTPLLEDALMDRDLVHRQTASAVVQHMSLGVYGFGCEDSLNHLLNYVWPNVFETSPHVIQAVMGALEGLRVAIGPCRMLQYCLQGLFHPARKVRDVYWKIYNSIYIGSQDALIAHYPRIYNDDKNTYIRYELDYIL | 2.403 log2 | -1.121 log2 | – | –
EWSR1 (protein, UniProt Q01844 1-656, looked up) RNA-binding protein EWS: MASTDYSTYSQAAAQQGYSAYTAQPTQGYAQTTQAYGQQSYGTYGQPTDVSYTQAQTTATYGQTAYATSYGQPPTGYTTPTAPQAYSQPVQGYGTGAYDTTTATVTTTQASYAAQSAYGTQPAYPAYGQQPAATAPTRPQDGNKPTETSQPQSSTGGYNQPSLGYGQSNYSYPQVPGSYPMQPVTAPPSYPPTSYSSTQPTSYDQSSYSQQNTYGQPSSYGQQSSYGQQSSYGQQPPTSYPPQTGSYSQAPSQYSQQSSSYGQQSSFRQDHPSSMGVYGQESGGFSGPGENRSMSGPDNRGRGRGGFDRGGMSRGGRGGGRGGMGSAGERGGFNKPGGPMDEGPDLDLGPPVDPDEDSDNSAIYVQGLNDSVTLDDLADFFKQCGVVKMNKRTGQPMIHIYLDKETGKPKGDATVSYEDPPTAKAAVEWFDGKDFQGSKLKVSLARKKPPMNSMRGGLPPREGRGMPPPLRGGPGGPGGPGGPMGRMGGRGGDRGGFPPRGPRGSRGNPSGGGNVQHRAGDWQCPNPGCGNQNFAWRTECNQCKAPKPEGFLPPPFPPPGGDRGRGGPGGMRGGRGGLMDRGGPGGMFRGGRGGDRGGFRGGRGMDRGGFGGGRRGGPGGPPGPLMEQMGGRRGGRGGPGKMDKGEHRQERRDRPY | 2.021 log2 | -1.1218 log2 | – | –
